{"source": "patent US20240383970A1", "about": "(BEIJING IMMUNOCHINA PHARMACEUTICALS, published 2024)", "binders": {"B1": {"name": "8A882 antibody (antibody, mouse IgG1, kappa, V domains shown)", "VH": "EVQLQQSGPELVKPGASVKMSCKASGYTFTDYYMKWVKQSHGKSLEWIGDINPNNGDTFYNQKFKGKATLTVDKSSSSAYMQLNSLTSEDSAVYYCARYYGNSSPWFAYWGQGTLVTVSA", "VL": "DIVLTQSPASLAVSLGQRATISCKASQSVDYDGDSYMNWYQQKPGQPPKLLIYAASNLQSGIPARFSGSGSGTDFTLNIHPVEEEDTATYYCQQITEDPWTFGGRTKLEIKR", "notes": "Mouse monoclonal antibody from a hybridoma, purified from ascites on a Protein A/G column"}, "B2": {"name": "8F8D1 antibody (antibody, V domains shown)", "VH": "B1 VH with S44R, S78T, N102R, A108P", "VL": "B1 VL with A12G, Y31N, D32S, Q59E, T87A, T96N", "notes": "Mouse monoclonal antibody from a hybridoma, purified from ascites on a Protein A/G column; also called PE-labeled 8F8D1 antibody"}}, "biological_target": "T1, CAR targeting CD19 containing a Strep-Tag II tag, on CAR-T cells (UniProt P01732 138-206; Q07011 214-255; P20963 52-163)", "T1 construct": "domain: CD8α hinge region, CD8α transmembrane region;domain: intracellular region of 4-IBB;domain: intracellular region of CD3ζ; Expressed on human T cells after lentiviral transduction; also called CAR-T cells containing a Strep-Tag II tag; Strep-Tag II short peptide", "T1 sequence (P20963 other isoform, or with tags, fused parts or gaps)": "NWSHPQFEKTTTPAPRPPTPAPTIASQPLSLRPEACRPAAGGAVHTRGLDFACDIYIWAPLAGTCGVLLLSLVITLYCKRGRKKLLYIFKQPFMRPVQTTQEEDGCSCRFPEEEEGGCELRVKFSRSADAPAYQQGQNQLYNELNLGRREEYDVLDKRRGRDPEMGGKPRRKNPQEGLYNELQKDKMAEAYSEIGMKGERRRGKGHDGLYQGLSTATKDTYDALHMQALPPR", "test": "flow cytometry titration (10 concentrations) on CAR-T cells with Strep-Tag II tag; filing equates EC50 with KD (saturated concentration method)", "excerpt": "The antibody affinity detection of the present invention adopts the dynamic equilibrium assay method (saturated concentration method). In the presence of a small amount of antigen, the antibody is subjected to gradient dilution to detect the concentration of the antigen-antibody complex. When the concentration of the antigen-antibody complex accounts for half of the total antigen concentration, the corresponding concentration value (EC50) of the antibody is the KD value of the antibody relative to the antigen.\nCAR-T cells containing a Strep-Tag II tag were collected, washed with DPBS and counted. The cells were dispensed into several EP tubes at approximately 3×10⁵ cells per tube. After centrifugation to remove the supernatant, 8A882 antibody or 8F8D1 antibody and a positive control antibody (commercial Strep-Tag II antibody, Abcam; Cat #: ab184224) diluted in serial gradient for 10 concentrations were added and incubated at room temperature for 15 minutes. After washing the cells twice with DPBS, PE-labeled rat anti-mouse IgG was added, and incubated at room temperature for 15 minutes. After washing the cells twice, FACS analysis and GraphPad Prism software were used to calculate the EC50 value. […] Compared with the positive control antibody, the two strain antibodies of the present invention have high affinity.", "note": "Substitutions are numbered along the chain they refer to."}
{"binder": "B1", "values": [{"measurement": "EC50", "result": 0.4, "unit": "nM"}]}
{"binder": "B2", "values": [{"measurement": "EC50", "result": 0.2, "unit": "nM"}]}
